Assay [1] concerns the target F-actin (rabbit skeletal muscle actin, polymerized) (rabbit) (UniProt P68135). As to the kind of experiment: co-sedimentation; high-speed centrifugation (HSC); 3.0 µM F-actin, alone or pre-incubated 15 min with 2.0 µM Tpm2 isoform, incubated with fascin 0-1.1 µM for 1 h at RT; 5 mM Tris-HCl, 100 mM NaCl, 2 mM MgCl2, 1 mM DTT, pH 7.5; Hill fit, apparent Kapp.
Assay [2] concerns the target F-actin saturated with Tpm2.1 (rabbit | human) (UniProt P68135). The description is as above.
Assay [3] has as its target F-actin (rabbit skeletal muscle actin, polymerized) (rabbit) (UniProt P68135). Nature of the assay: co-sedimentation; high-speed centrifugation (HSC, 1 h, 40,000 rpm, 20 °C); 3.0 µM F-actin pre-incubated with 0.3 µM fascin for 20 min, titrated with Tpm2 isoforms 0-3.0 µM; 5 mM Tris, 100 mM NaCl, 2 mM MgCl2, 1 mM DTT, pH 7.5; Hill fit, apparent Kapp; fascin band in the pellets also quantified.

For “recombinant mouse fascin-1 with GPLGS N-terminal extension (GST tag cleaved) (natural protein)”, the results for the Ka in assay [1] and in assay [2] were 1.15e+07 M⁻¹ and 8e+06 M⁻¹, respectively.

On to “Tpm2.4, recombinant N-terminally acetylated human tropomyosin isoform encoded by TPM2 (natural protein)”, for which, in assay [3], the percent reduction of fascin bound to F-actin came out at 30%.

The values above are taken from article PMC12399007.
